Measured values from the DeepSol protein solubility set.

Test: soluble on expression in E. coli; label from the status in PepcDB or PDB records
With “MDNKLGLNKMNKTLIALAVSAAAVATGAYADGINQSGDKAGSTVYSAKGTSLEVGGRAEARLSLKDGKAQDNSRVRLNFLGKAEINDSLYGVGFYEGEFTTNDQGKNASNNSLDNRYTYAGIGGTYGEVTYGKNDGALGVITDFTDIMSYHGNTAAEKIAVADRVDNMLAYKGQFGDLGVKASYRFADRNAVDAMGNVVTETNAAKYSDNGEDGYSLSAIYTFGDTGFNVGAGYADQDDQNEYMLAASYRMENLYFAGLFTDGELAKDVDYTGYELAAGYKLGQAAFTATYNNAETAKETSADNFAIDATYYFKPNFRSYISYQFNLLDSDKVGKVASEDELAIGLRYDF” the “soluble on expression in E. coli” value was “not soluble”. For “MDNKLSKIPTETFGEYIKRIRELRGYSQRKLSTLSDLSNTTICRIEKGSENGIENPDAETVVKLAEGLKLEKKALLIAAGYLDNENVEETTDLKECIRIALQKLGWINSYNDINEETITYVEFLLKKYGNKYKQIP”, the “soluble on expression in E. coli” value was “not soluble”. With “MDNQPYNPLHGLTLKTIVTELEAYFGFETLGKTIKIKCFTDDPSIQSTLKFLRKTPWAREKVEQLYIKNKIKIQNSFESGDLDLEHHHHHH” the “soluble on expression in E. coli” value was “not soluble”. For “MDNVTSSQLLSVRHQLAESAGLPRDQHEFVSSQAPQSLRNRYNNLYSHTQRTLDMADMQHRYMTGASGINPGMLPHENVDDMRSAITDWSDMREALQHAMGIHADIVDYKDDDDK”, the “soluble on expression in E. coli” value was “soluble”. For MDPGKKKQHICHIQGCGKVYGKTSHLRAHLRWHTGER, the “soluble on expression in E. coli” value was “soluble”. With “MDQDYERRLLRQIVIQNENTMPRVTEMRRTLTPASSPVSSPSKHGDRFIPSRAGANWSVNFHRINENEKSPSQNRKAKDATSDNGKDGLAYSALLKNELLGAGIEKVQDPQTEDRRLQPSTPEKKGLFTYSLSTKRSSPDDGNDVSPYSLSPVSNKSQKLLRSPRKPTRKISKIPFKVLDAPELQDDFYLNLVDWSSLNVLSVGLGTCVYLWSACTSQVTRLCDLSVEGDSVTSVGWSERGNLVAVGTHKGFVQIWDAAAGKKLSMLEGHTARVGALAWNAEQLSSGSRDRMILQRDIRTPPLQSERRLQGHRQEVCGLKWSTDHQLLASGGNDNKLLVWNHSSLSPVQQYTEHLAAVKAIAWSPHQHGLLASGGGTADRCIRFWNTLTGQPLQCIDTGSQVCNLAWSKHANELVSTHGYSQNQILVWKYPSLTQVAKLTGHSYRVLYLAMSPDGEAIVTGAGDETLRFWNVFSKTRSTKESVSVLNLFTRIR” the “soluble on expression in E. coli” value was “soluble”. With “MDQERARKRGITMGKQEFDGMSRISGLLTPELRATIEAVLAKLAAPGACNPDDQTPLVDDTPDADAVRRDTRSQAQRHHDGLLAGLRGLLASGELGQHRGLPVTVVVSTTLKELEAATGKGVTGGGSRVPMSDLIRMASNAHHYLALFDGAKPLALYHTKRLASPAQRIMLYAKDRGCSLEHHHHHH” the “soluble on expression in E. coli” value was “soluble”. For “MDQKTRIVAAVIKGVKLPPRFRLRLLKEDPVRLELSLTPAYGKDPVTVGLVESLDLVARRDREGRIPRDLQGTWDWTVRHGKVSTGGWNPYLKEALQTMFETGLPAIVFEELTGEEYHPVDGTRHVR”, the “soluble on expression in E. coli” value was “not soluble”. In the case of “MDQQEPSNNVDTSSILSDDGMETQEQSSFVTATIDLTVDDYDETEIQEILDNGKAEEGTDEDSDLVEGILNANSDVQALLDAPSEQVAQALNSFFGNESEQEAVAAQRRVDAEKTAKDEAELKQQEEAEDLIIEDSIVKTDEEKQAVRRLKINEFLSWFTRLLPEQFKNFEFTNPNYLTESISDSPVVNVDKCKEIVKSFKESESLEGLSQKYELIDEDVLVAAICIGVLDTNNEEDVDFNVLCDDRIDDWSIEKCVTFLDYPNTGLNSKNGPLRFMQFTVTSPASAILMLTLIRLREEGHPCRLDFDSNPTDDLLLNFDQVEFSNNIIDTAVKYWDDQKENGAQDKIGRRVLIKLTTVLKNAVGSRNEIIQLVNEKIPDFDGTEAAVNESFTSDQRTEIINSRAIMETLKAEMKLAIAEAQKVYDTKTDFEKFFVLTVGDFCLARANPSDDAELTYAIVQDRVDAMTYKVKFIDTSQIRECNIRDLAMTTQGMYDPSLNTFGDVGLRVACRQVISSSQFGKKTIWLTGTAAGRRRAHRSDFLIFFDNGTDAYVSAPTMPGEPGYEVASEKKSVFSLKEMIAKMNAAQIAIMVGQPVGKEGNLDYFLTFHWIRQSHRSAYIRDFMKEFPEWPLLKMPVGMRICLYNSLVDRRKKMVTVIGTDRAFAIVRHEAPNPLAPGNRCTDFPCNDRNHQHIDEKIYRGSHRLEGAAHKKHMISTNNNLSQRRKDQLQSQFEPTDMIRSMPERNHQQVVKKKTTGTNQNVASTNDAKSKREIEIRKKNQFLFNKIIVPIPVLTPLENLKAHAQCGPDCLQKMDADPYEARFHRNSPIHTPLLCGWRRIMYTMSTGKKRGAVKKNIIYFSPCGAALHQISDVSEYIHVTRSLLTIDCFSFDARIDTATYITVDDKYLKVADFSLGTEGIPIPLVNSVDNDEPPSLEYSKRRFQYNDQVDISSVSRDFCSGCSCDGDCSDASKCECQQLSIEAMKRLPHNLQFDGHDELYESSEKQNKFLKLFFFRVPHYQNRLLSSKVISGLYECNDQCSCHRKSCYNRVVQNNIKYPMHVSLFNDDTYQLLFFLQIFKTAQSGWGVRALTDIPQSTFICTYVGAILTDDLADELRNADQYFADLDLKDTVELEKGREDHETDFGYGGDESDYDDEEGSDGDSGDDVMNKMVKRQDSSESGEETKRLTRQKRKQSKKSGKGGSVEKDDTTPRDSMEKDNIESKDEPVFNWDKYFEPFPLYVIDAKQRGNLGRFLNHSCDPNVHVQHVMYDTHDLRLPWVAFFTRKYVKAGDELTWDYQYTQDQTATTQLTCHCGAENCTGRLLKS”, the “soluble on expression in E. coli” value is reported as “not soluble”. In the case of “MDRFMAGDLEVRCEVIYRRVKNPRIELRFDSLRLILPADFTGDPMEVLSSRSDWIQRKIHEFHEMLERASDMELEYRRDKELRSLVSGFLDHYSDVLGVEYGRVRFRRMRSRWGSCSSRGNLSFNTLLSHLPDRMVEYVVLHELAHLREMNHSPRFWGILESEMPDCTERRRMLRYYWARLYMEGLVDLEHHHHHH”, the “soluble on expression in E. coli” value is reported as “soluble”. In the case of “MDRKIVQLIHNFSGTEKLKAAVFSHDEQCFFDFVSFDELNSKLTGFLLFDSLEKLFKLVETIQQKRSWLYVDELWLINTATENQQLNEVSVWLVKKELAQVGVLTQLDTSLVKLLMASKNTDSALYNTYIKPVELQQFTQTPAPDNVNAEQSHLTLESTTDLNNSQLANTPALWEVEQTTQELLPTMDFSKFIDELDQITKNFSDLELEPLSFNEGFDEWNQE”, the “soluble on expression in E. coli” value is reported as “soluble”. In the case of “MDRLDRKILYLLQENATLSVADIAKKVGLSTTPCWRRIQKLEEDGVIQRRVAVLSPEKVNAHVTVFVSIRTNTHSQEWLKRFSKIVQEFREVIEFYRMSGDIDYLLRVVVPNIEAYDLFYKKLIAKIDIRDVSSSFAMEQIKYTTELPLNYIKLHDKTSEQNS”, the “soluble on expression in E. coli” value is reported as “not soluble”. In the case of “MDRLSYAIGDKAVLNNIRVQFQPGSVTALLGPNGAGKSTLLKALCQEIPSAQGSIKLGHCQLVDWPRAELAKSLAVLPQHASLTFPFTVDEVVAMGLYPLTLSQKEGQQLVTKWLAEVGVLHLARRSYPTLSGGEKQRVQLARVLTQLSQSPFPPILLLDEPTSALDLAQQHKVLALAKNLAHKHAYTVIVVLHDLNQAARYSDRVIVLKQGEIVSEGTPNDALSIDIIRQVWDYEPEFIPAPQGDYPLIF”, the “soluble on expression in E. coli” value is reported as “not soluble”. With “MDRVTRYPILGIPQAHRGTGLVLDGDTSYTYHLVCMGPEASGWGQDEPQTWPTDHRAQQGVQRQGVSYSVHAYTGQPSPRGLHSENREDEGWQVYRLGARDAHQGRPTWALRPEDGEDKEMKTYRLDAGDADPRRLCDLERERWAVIQGQAVRKSSTVATLQGTPDHGDPRTPGPPRSTPLEENVVDREQIDFLAARQQFLSLEQANKGAPHSSPARGTPAGTTPGASQAPKAFNKPHLANGHVVPIKPQVKGVVREENKVRAVPTWASVQVVDDPGSLASVESPGTPKETPIEREIRLAQEREADLREQRGLRQATDHQELVEIPTRPLLTKLSLITAPRRERGRPSLYVQRDIVQETQREEDHRREGLHVGRASTPDWVSEGPQPGLRRALSSDSILSPAPDARAADPAPEVRKVNRIPPDAYQPYLSPGTPQLEFSAFGAFGKPSSLSTAEAKAATSPKATMSPRHLSESSGKPLSTKQEASKPPRGCPQANRGVVRWEYFRLRPLRFRAPDEPQQAQVPHVWGWEVAGAPALRLQKSQSSDLLERERESVLRREQEVAEERRNALFPEVFSPTPDENSDQNSRSSSQASGITGSYSVSESPFFSPIHLHSNVAWTVEDPVDSAPPGQRKKEQWYAGINPSDGINSEVLEAIRVTRHKNAMAERWESRIYASEEDD” the “soluble on expression in E. coli” value was “not soluble”. In the case of “MDSINTRIAEELSALPSGRVQPQQVAAAVALLDEGSTVPFIARYRKEVTGSLDDTQLRMLEERLRYLRELEERRGAILASIEEQGKLTPELARDIKLADTKTRLEDLYLPYKQKRRTKGQIALEAGLGALADALFDDPTLVPESEAARFVDAEKGFADVKAVLEGAKYILMERFAEDATLLDKLRVFMKNEATLTARVVPGKEQEGAKFSDYFEHDEPLKSAPSHRALAIFRGRNEGVLSASLKVGEEAPGTLHPCEVMIAERFGLSNQGRAADKWLAEVVRWTWKVKLYTHLETDLFGELRDGAEDEAISVFARNLHDLLLAAPAGPRATLGLDPGLRTGVKVAVVDATGKLLDTATVYPHAPKNQWDQTLAVLAALCAKHQVELIAIGNGTASRETDKLAGELIKKYPGMKLTKIMVSEAGASVYSASELAAKEFPELDVSLRGAVSIARRLQDPLAELVKIEPKSIGVGQYQHDVSQLKLARSLDAVVEDCVNAVGVDVNTASAALLARISGLNSTLAQNIVAHRDANGAFRTRDELKKVSRLGEKTFEQAAGFLRVMNGDNPLDASAVHPETYPLVQRIAADTERDIRSLIGDSAFLKRLDPKKFTDETFGLPTVTDILKELDKPGRDPRPEFKTAEFQEGVESLKDLKPGMVLEGVVTNVTNFGAFVDIGVHQDGLVHISALSEKFVKDPYEVVKAGDIVKVKVMEVDIPRNRVGLSMRMSDTPGEKVEGQRGGRPTGSGQPRQERGAPRGQSAPPANNAMAALFANAKQLKKKHHHHHH”, the “soluble on expression in E. coli” value is reported as “soluble”. With “MDSKAIAERIKKLQAQQEHVRIGGKGTPRRKKKVIHKTAAADDKKLQSNLKKLSVTNIPGIEEVNMIKDDGTVIHFNNPKVQTSVPANTFSVTGSADNKQITEMLPGILNQLGPESLTHLKKLANNVTKLGPDGKGEDEDVPELVGDFDAASKNETKADEQ” the “soluble on expression in E. coli” value was “soluble”. In the case of “MDSNDLEASFTSRLPPEIVAALKRKSSRDPNSRFPRKLHMLLTYLASNPQLEEEIGLSWISDTEFKMKKKNVALVMGIKLNTLNVNLRDLAFEQLQHDKGGWTQWKRSGFTRNSVFEDPTQNDSPMHHHHHH”, the “soluble on expression in E. coli” value is reported as “soluble”. In the case of “MDSNLMSSVSTSAILGGENFADLFAESLKSQDMKSGEVISAEVVRVDHNFVVVNAGLKSEALIPLEEFLNDQGELEVQPGDFVSVAIDSLENGYGDTILSRDRAKRLSAWLQLEQALENGELVTGTITGKVKGGLTVMTNGIRAFLPGSLVDLRPVKDTTPYEGKTLEFKVIKLDRKRNNVVLSRRQVLEASMGEERQKLLETLHEGAVVKGVVKNITDYGAFVDLGGIDGLLHITDMAWRRVRHPSEVLQVGQEVEAKVLKFDQEKSRVSLGVKQLGEDPWVGLARRYPQGTRLFGKVTNLTDYGAFVEVEAGIEGLVHVSEMDWTNKNVDPRKVVTLGEEVEVMVLEIDEDRRRISLGMKQCRQNPWEEFATNFKRGDKVRGAIKSITDFGVFVGLPGGIDGLVHLSDLSWTESGEEAVRNFKKGDELEAVVLGIDTEKERISLGIKQLEGDPFNNFVATHDKGAVVPGTIKSVEPKGAVITLSVDVEGYLRASEISSGRVEDATTVLKAGENIEAMIVNIDRKARSIQLSIKARDNAETAETIQRMSEASASSGTTNLGALLKAKLDQQRNDGLEHHHHHH”, the “soluble on expression in E. coli” value is reported as “not soluble”.
